According to the supplement of paper PMC7877785:
± gives the uncertainty stated by the source.

Experiment: self-splicing fitness, log relative to wild type (ln ratio); higher = more splicing; Tetrahymena group I intron in knt gene, E. coli kanamycin selection, DiMSum; sequences stand for … in CUCUCU…GGAGGGAAAAGUUAUCAGGCAUGCACCUGGUAGCUAGUCUUUAAACCAAUAGAUUGCAUCGGUUUAAAAGGCAAGACCGUCAAAUUGCGGGAAAGGGGUCAACAGCCGUUCAGUACCAAGUCUCAGGGGAAACUUUGAGAUGGCCUUGCAAAGGGUAUGGUAAUAAGCUGACGGACAUGGUCCUAACCACGCAGCCAAGUCCUAAGUCAACAGAUCUUCUGUUGAUAUGGAUGCAGUUCACAGACUAAAUGUCGGUCGGGGAAGAUGUAUUCUUCUCAUAAGAUAUAGUCGGACCUCUCCUUAAUGGGAGCUAGCGGAUGAAGUGAUGCAACACUGGAGCCGCUGGGAACUAAUUUGUAUGCGAAAGUAUAUUGAUUAGUUUUGGAGUACUCGUGGUCG
Outline: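 Library with all eight P1ex-region intron nucleotides randomised, intron inside the knt kanamycin-resistance gene on pET-22b(+), in E. coli BL21(DE3). Cells grew overnight at 37°C or 30°C on LB agar with or without 25 μg/mL kanamycin (plus 100 μg/mL carbenicillin, 50 μM IPTG, 0.2% rhamnose), in six replicate transformations. Pooled colonies were amplicon-sequenced on Illumina HiSeq 2500. DiMSum fitness is the error-weighted combination of wild-type-normalised replicate fold changes, kanamycin versus none.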

Row | Sequence | self-splicing fitness (ln) (30 °C) | self-splicing fitness (ln) (37 °C)
1 | CCACAGCAAUAUUACGCUGG | -4.04 ± 0.22 | -2.58 ± 0.2
2 | CAUCAGCAAUAUUACGUAGC | -3.39 ± 0.21 | -1.98 ± 0.19
3 | UUAGAGCAAUAUUACGAGUC |  | -2.53 ± 0.49
4 | CGAGAGCAAUAUUACGGUGU | -3.56 ± 0.21 | -2.73 ± 0.24
5 | AGCAAGCAAUAUUACGGCAU | -0.0513 ± 0.084 | -0.204 ± 0.092
6 | AACAAGCAAUAUUACGCCGU | -1.5 ± 0.096 | -0.696 ± 0.094
7 | UGGAAGCAAUAUUACGCACA | -1.44 ± 0.2 | 0.0258 ± 0.2
8 | ACUUAGCAAUAUUACGGCGC | -0.406 ± 0.11 | 0.119 ± 0.15
9 | UCAUAGCAAUAUUACGCAUU | -2.86 ± 0.14 | -3.04 ± 0.22
10 | GAUCAGCAAUAUUACGUCGG | -4.18 ± 0.3 | -2.39 ± 0.2
11 | GCACAGCAAUAUUACGUAUA | -0.999 ± 0.06 | -0.413 ± 0.07
12 | UAUAAGCAAUAUUACGCAGC | -2.5 ± 0.23 | -2.43 ± 0.3
13 | CUCAAGCAAUAUUACGUUAG | -2.26 ± 0.062 | -1.47 ± 0.075
14 | AGACAGCAAUAUUACGGCUU | -0.243 ± 0.094 | 0.564 ± 0.14
15 | GUGUAGCAAUAUUACGGCCC | 0.713 ± 0.23 | 0.583 ± 0.3
16 | GACUAGCAAUAUUACGCUUA | -0.282 ± 0.17 | -0.7 ± 0.14
17 | CUUGAGCAAUAUUACGCCGC | -1.08 ± 0.47 | 
18 | UCGAAGCAAUAUUACGCAUC | -1.47 ± 0.29 | -2.36 ± 0.3
19 | AGUGAGCAAUAUUACGAAUU | -3.18 ± 0.37 | -2.56 ± 0.33
20 | UCUGAGCAAUAUUACGUGCU | -3.52 ± 0.4 | 

Row | Sequence | self-splicing fitness (ln) (30 °C) | self-splicing fitness (ln) (37 °C)
21 | UAUGAGCAAUAUUACGCGGG | -2.75 ± 0.3 | -1.6 ± 0.23
22 | UACCAGCAAUAUUACGAUUA | -0.0875 ± 0.065 | 0.118 ± 0.075
23 | CUGUAGCAAUAUUACGGGGA | -2.67 ± 0.17 | -2.9 ± 0.24
24 | GCACAGCAAUAUUACGUAUG | -2.21 ± 0.073 | -1.52 ± 0.079
25 | CCAUAGCAAUAUUACGAGGC | -3.03 ± 0.15 | -3.27 ± 0.21
26 | UCUCAGCAAUAUUACGAGUG | -0.746 ± 0.068 | 0.292 ± 0.086
27 | AGUCAGCAAUAUUACGGGAU | -1.04 ± 0.079 | -1.51 ± 0.15
28 | CAUAAGCAAUAUUACGAUAC |  | -2.28 ± 0.34
29 | CCUAAGCAAUAUUACGUAUC | -3.83 ± 0.32 | -2.33 ± 0.26
30 | CGCGAGCAAUAUUACGACGG | -0.512 ± 0.1 | -0.452 ± 0.11
31 | CUAUAGCAAUAUUACGGAGG | -2.7 ± 0.17 | 0.224 ± 0.16
32 | GGACAGCAAUAUUACGGACC | -1.35 ± 0.19 | -1.02 ± 0.23
33 | CGUGAGCAAUAUUACGAAGG | -2.37 ± 0.14 | -1.42 ± 0.14
34 | GGGCAGCAAUAUUACGUCUG | -1.11 ± 0.22 | -1.04 ± 0.16
35 | AAUGAGCAAUAUUACGACUC | -1.05 ± 0.13 | -0.904 ± 0.15
36 | GGCAAGCAAUAUUACGCUGG | -3.31 ± 0.23 | -2.68 ± 0.28
37 | UUCAAGCAAUAUUACGACGG | -1.5 ± 0.11 | -0.143 ± 0.12
38 | CAGCAGCAAUAUUACGUGCU | -3.3 ± 0.13 | -1.94 ± 0.12
39 | CGCUAGCAAUAUUACGGGCU | -1.85 ± 0.17 | -1.33 ± 0.2
